Data as given in patent US20160046944, “APTAMER TO IL-17 AND USE THEREOF” (THE UNIVERSITY OF TOKYO, published 2016).
Where a chain is given by its changes, count along the chain named.

T1: IL-17 (IL-17A) (Homo sapiens, UniProt Q16552 Q16552:24-155)
T1 sequence: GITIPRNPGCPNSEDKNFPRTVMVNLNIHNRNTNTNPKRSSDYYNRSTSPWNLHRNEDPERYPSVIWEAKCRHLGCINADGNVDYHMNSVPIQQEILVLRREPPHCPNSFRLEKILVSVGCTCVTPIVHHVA

B1: aptamer No. 90 (mixed)
mixed: GGGUAGCCGGAGGAGTCAGTAAUCGGUACCC
modifications: g(M)g(M)g(M)u(M)a(M)g(S)c(M)c(M)Gg(M)a(M)gg(M)a(M)g(S)Tc(M)a(F)g(S)Ta(M)au(M)c(M)g(M)g(M)u(M)a(M)c(M)c(M)c(M)
B2: aptamer No. 84 (mixed)
RNA: B1 mixed with T16U, T20U
modifications: g(M)g(M)g(M)u(M)a(M)g(S)c(M)c(M)Gg(M)a(M)gg(M)a(M)g(S)u(F)c(F)a(F)g(S)u(F)a(M)a(M)u(M)c(M)g(M)g(M)u(M)a(M)c(M)c(M)c(M)
B3: aptamer No. 86 (mixed)
mixed: B1 mixed with A21G
modifications: g(M)g(M)g(M)u(M)a(M)g(S)c(M)c(M)Gg(M)a(M)gg(M)a(M)g(S)Tc(M)a(F)g(S)Tg(M)a(M)u(M)c(M)g(M)g(M)u(M)a(M)c(M)c(M)c(M)
B4: aptamer No. 80 (mixed)
RNA: B1 mixed with T16U, T20U
modifications: g(M)g(M)g(M)u(M)a(M)g(S)c(M)c(M)Gg(M)a(F)gg(M)a(M)gu(F)c(F)a(F)gu(F)a(M)a(M)u(M)c(M)g(M)g(M)u(F)Ac(M)c(M)c(M)
B5: aptamer No. 92 (mixed)
RNA: B1 mixed with T16U, T20U
modifications: g(M)g(M)g(M)u(M)a(M)g(S)c(M)c(M)Gg(M)a(M)gg(M)a(M)g(S)u(F)c(F)a(F)g(S)u(F)aa(M)u(M)c(M)g(M)g(M)u(F)a(M)c(M)c(M)c(M)
B6: aptamer No. 75 (mixed)
mixed: B1 mixed
modifications: g(M)g(M)g(M)u(M)a(M)gc(M)c(M)gg(M)a(F)gg(M)a(M)gTc(F)a(F)gTa(M)a(M)u(M)c(M)g(M)g(M)u(F)a(M)c(M)c(M)c(M)
B7: aptamer No. 62 (mixed)
mixed: B1 mixed
modifications: g(M)g(M)g(M)u(M)a(M)g(S)c(M)c(M)Gg(M)a(F)gg(M)a(M)gTc(F)a(F)gTa(M)a(M)u(M)c(M)g(M)g(M)u(F)a(M)c(M)c(M)c(M)
B8: aptamer No. 76 (mixed)
RNA: B1 mixed with T16U, T20U
modifications: g(M)g(M)g(M)u(M)a(M)gc(M)c(M)Gg(M)a(F)gg(M)a(M)gu(F)c(F)a(F)gu(F)a(M)a(M)u(M)c(M)g(M)g(M)u(F)Ac(M)c(M)c(M)
B9: aptamer No. 66 (mixed)
mixed: B1 mixed
modifications: g(M)g(M)g(M)u(M)a(M)g(S)c(M)c(M)Gg(M)a(F)gg(M)a(M)g(S)Tc(F)a(F)g(S)Ta(M)a(M)u(M)c(M)g(M)g(M)u(M)a(M)c(M)c(M)c(M)
B10: aptamer No. 60 (mixed)
mixed: B1 mixed
modifications: g(M)g(M)g(M)u(M)a(M)g(S)c(M)c(M)Gg(M)a(F)gg(M)a(M)g(S)Tc(F)a(F)g(M)Ta(M)a(M)u(M)c(M)g(M)g(M)u(F)a(M)c(M)c(M)c(M)
B11: aptamer No. 78 (mixed)
mixed: B1 mixed
modifications: g(M)g(M)g(M)u(M)a(M)gc(M)c(M)Gg(M)a(F)gg(M)a(M)gTc(F)a(F)gTa(M)a(M)u(M)c(M)g(M)g(M)u(M)a(M)c(M)c(M)c(M)
B12: aptamer No. 81 (mixed)
mixed: B1 mixed
modifications: g(M)g(M)g(M)u(M)a(M)g(S)c(M)c(M)Gg(M)a(M)gg(M)a(M)g(S)Tc(M)a(F)g(S)Ta(M)a(M)u(M)c(M)g(M)g(M)u(M)a(M)c(M)c(M)c(M)
B13: aptamer No. 70 (mixed)
RNA: B1 mixed with T16U, T20U
modifications: g(M)g(M)g(M)u(M)a(M)g(S)c(M)c(M)Gg(M)a(F)gg(M)a(M)g(S)u(F)c(F)a(F)g(S)u(F)a(M)a(M)u(M)c(M)g(M)g(M)u(F)a(M)c(M)c(M)c(M)
B14: aptamer No. 89 (mixed)
mixed: B1 mixed
modifications: g(M)g(M)g(M)u(M)a(M)g(S)c(M)c(M)Gg(M)a(M)gg(M)a(M)g(S)Tc(M)a(F)g(S)Taa(M)u(M)c(M)g(M)g(M)u(M)a(M)c(M)c(M)c(M)
B15: aptamer No. 65 (mixed)
mixed: B1 mixed
modifications: g(M)g(M)g(M)u(M)a(M)g(S)c(M)c(M)Gg(M)a(F)gg(M)a(M)gTc(F)a(F)gTa(M)a(M)u(M)c(M)g(M)g(M)u(M)a(M)c(M)c(M)c(M)
B16: aptamer No. 79 (ssRNA)
RNA: B1 mixed with T16U, T20U
modifications: g(M)g(M)g(M)u(M)a(M)gc(M)c(M)gg(M)a(F)gg(M)a(M)gu(F)c(F)a(F)gu(F)a(M)a(M)u(M)c(M)g(M)g(M)u(M)a(M)c(M)c(M)c(M)
B17: aptamer No. 93 (mixed)
RNA: B1 mixed with T16U, T20U
modifications: g(M)g(M)g(M)u(M)a(M)g(S)c(M)c(M)Gg(M)a(M)gg(M)a(M)g(S)u(F)c(F)a(F)g(S)u(F)a(M)au(M)c(M)g(M)g(M)u(F)a(M)c(M)c(M)c(M)
B18: aptamer No. 91 (mixed)
mixed: B1 mixed
modifications: g(M)g(M)g(M)u(M)a(M)g(S)c(M)c(M)Gg(M)a(M)gg(M)a(M)g(S)Tc(M)a(F)g(S)Taau(M)c(M)g(M)g(M)u(M)a(M)c(M)c(M)c(M)
B19: aptamer No. 77 (mixed)
RNA: B1 mixed with T16U, T20U
modifications: g(M)g(M)g(M)u(M)a(M)gc(M)c(M)gg(M)a(F)gg(M)a(M)gu(F)c(F)a(F)gu(F)a(M)a(M)u(M)c(M)g(M)g(M)u(F)Ac(M)c(M)c(M)
B20: aptamer No. 64 (mixed)
mixed: B1 mixed
modifications: g(M)g(M)g(M)u(M)a(M)g(S)c(M)c(M)Gg(M)a(F)gg(M)a(M)g(S)Tc(M)a(F)g(S)Ta(M)a(M)u(M)c(M)g(M)g(M)u(F)a(M)c(M)c(M)c(M)
B21: aptamer No. 72 (mixed)
RNA: B1 mixed with T16U, T20U
modifications: g(M)g(M)g(M)u(M)a(M)g(S)c(M)c(M)Gg(M)a(F)gg(M)a(M)gu(F)c(F)a(F)gu(F)a(M)a(M)u(M)c(M)g(M)g(M)u(M)a(M)c(M)c(M)c(M)
B22: aptamer No. 59 (mixed)
mixed: B1 mixed
modifications: g(M)g(M)g(M)u(M)Ag(S)c(M)c(M)Gg(M)a(F)gg(M)a(M)g(S)Tc(F)a(F)g(M)Ta(M)a(M)u(M)c(M)g(M)g(M)u(F)a(M)c(M)c(M)c(M)
B23: aptamer No. 82 (mixed)
mixed: B1 mixed
modifications: g(M)g(M)g(M)u(M)a(M)g(S)c(M)c(M)Gg(M)a(M)gg(M)a(M)g(S)Tc(F)a(F)g(S)Ta(M)a(M)u(M)c(M)g(M)g(M)u(M)a(M)c(M)c(M)c(M)

biological target: T1, IL-17 (IL-17A); test: cell_activity; IL-6 release, NIH3T3; settings: chain copies: 2
Experimental: First, human IL-17 and the aptamer produced in Example 1-2 were pre-incubated at 37° C. for 30 min, and added to NIH3T3 cell (ATCC, CRL1658) together with mouse TNFα (2 ng/mL). Then, after incubation for 24 hr, the culture supernatant was collected, and the production amount of IL-6 was measured by ELISA method described below. The IL-17 inhibitory action of each aptamer was determined from the production amount of IL-6. For comparison with the aptamer of the present invention, a conventionally-known aptamer (aptamer No. 50) against IL-17 was used.
ELISA method for verifying IL-17 inhibitory action of aptamer: A microtiter plate for ELISA was coated with rat anti-mouse IL-6 antibody (BD Biosciences, 2 μg/mL; 100 μL/well) diluted with PBS, and incubated at 4° C. overnight. The next day, the microtiter plate was washed 3 times with PBS/0.05% Tween 20, and applied blocking with PBS/1% BSA (200 μL/well) at room temperature for 2 hr. Then, the plate was washed 3 times with PBS/0.05% Tween 20. Recombinant mouse IL-6 (BD Biosciences; 100 μL/well) serially diluted with PBS/1% BSA/0.05% Tween 20 or culture supernatants (100 μL/well) were added to the plate. After incubation at room temperature for 2 hr, the plate was washed 3 times with PBS/0.05% Tween 20. Then, 100 μL/well of biotin conjugated rat anti-mouse IL-6 antibody (BD Biosciences) was added to the plate at final dilution of 1/500, and the mixture was reacted at room temperature for 1 hr. After washing 3 times with PBS/0.05% Tween 20, 100 μL/well of alkaline phosphatase conjugated streptavidin was added at final dilution of 1/1000. After 30 min at room temperature, the plate was again washed 4 times with PBS/0.05% Tween 20, and a substrate (1-Step PNPP; Thermo Fisher Scientific Inc; 100 μL/well) was added. After 15 min, aqueous sodium hydroxide solution (2N: 50 μL/well) was added to stop the reaction, and the plate was read on a microtiter reader (Bio-Rad) by using a 405 nm filter.

Row | Binder | IC50 [nM]
1 | B1 | 1.08
2 | B2 | 1.04
3 | B3 | 5.16
4 | B4 | 1.52
5 | B5 | 2.6
6 | B6 | 1.33
7 | B7 | 0.69
8 | B8 | 1.7
9 | B9 | 1.21
10 | B10 | 2.35
11 | B11 | 1.36
12 | B12 | 2.26
13 | B13 | 3.28
14 | B14 | 6.21
15 | B15 | 0.67
16 | B16 | 2.25
17 | B17 | 0.22
18 | B18 | 3.86
19 | B19 | 4.66
20 | B20 | 4.64
21 | B21 | 2.24
22 | B22 | 1.19
23 | B23 | 0.48
